Experimental data as given in patent publication US20170101458A1.

How the values were obtained:
[1] = biological target: hLDLR-K809R\C818A (human) (UniProt P01130); experiment: cell-based or functional assay
[2] = biological target: wild type human low density lipoprotein receptor (hLDLR), isoform 1 (human) (UniProt P01130); experiment: cell-based or functional assay

percent LDL positive HEK293 cells, hLDLR-K809R\C818A co-transfected with hIDOL [1]: 14 % of cells
percent LDL positive HEK293 cells, hLDLR co-transfected with hIDOL [2]: 2 % of cells
Substance: human inducible degrader of LDLR (hIDOL) (from UniProt Q8WY64 1-445)
